Data on one molecule can be found in article PMC6168351 (Molecular cancer therapeutics, 2018).

This assay addresses Human GPA33 (Novoprotein), recombinant (Homo sapiens (Human)., UniProt Q99795). Put plainly: SPR.

Chain of Human GPA33 (Novoprotein), recombinant (Q99795 22-235): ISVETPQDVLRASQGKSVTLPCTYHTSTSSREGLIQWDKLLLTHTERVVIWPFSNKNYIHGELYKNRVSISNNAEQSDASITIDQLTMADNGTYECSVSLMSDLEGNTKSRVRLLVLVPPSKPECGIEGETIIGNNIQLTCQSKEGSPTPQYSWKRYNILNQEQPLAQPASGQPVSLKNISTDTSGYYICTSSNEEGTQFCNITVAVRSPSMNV

B1: huA33 (humanized A33 antibody, selected clone), IgG1 (antibody, V domains shown)
VH: EVQLVESGGGLVKPGGSLRLSCAASGFAFSTYDMSWVRQAPGKRLEWVATISSGGSYTYYLDSVKGRFTISRDNAKNSLYLQMNSLRAEDTAVYYCAPTTVVPFAYWGQGTLVTVSS
VL: DIQMTQSQSSLSTSVGDRVTITCKASQNVRTVVAWYQQKPGKSPKTLIYLASNRHTGVPSRFSGSGSGTEFTLTISNVQPEDFADYFCLQHWSYPLTFGSGTKLEIK
The Kd is the equilibrium constant for the complex coming apart. B1: the Kd turned out to be 0.13 nM.
